Consider six molecules from publication PMC12723162, “Alphaherpesvirus pUL21 homologs use non-canonical sequences to compete with cellular adaptors for protein phosphatase 1 binding” (The Journal of Biological Chemistry, 2025).

Residue numbers refer to the chain shown, from its start.

For this test, the system named is endogenous PP1α. In words: GFP affinity capture / co-IP of endogenous PP1α with GFP-tagged bait. The format is binding, human. To be noted: HEK 293T cells, 24 h post-transfection, GFP-Trap, immunoblot, representative of two independent experiments. From the text:
Bacterial expression plasmids encoding the mouse PP1γ catalytic domain (residues 7–300)-H6 and pUL21-H6, and mammalian expression vectors encoding pUL21(FV242AA)-GFP, pORF38-GFP and pORF38(FV255AA)-GFP, were described previously ([23]). We note that the mouse and human PP1γ catalytic domains share 100% amino acid identity. pORF38-NLT-H6 was generated by sub-cloning residues 1 to 263 of ORF38 into the vector pOPTnH ([52]). pUL21-RVxF-H6 was generated by inserting the mutations A237V and V239F into pUL21-H6 by QuikChange site-directed mutagenesis. Human PP1α was cloned from HeLa cell cDNA into a vector derived from pF5K (Promega) with an N-terminal Myc epitope tag via restriction-based cloning, and point mutations were introduced into Myc-PP1α by QuikChange mutagenesis. A plasmid encoding pUL21-GFP was generated by sub-cloning a codon-optimized synthetic UL21 gene (GeneArt) into pEGFP-N1 (Clontech), yielding an identical pUL21-GFP amino acid sequence as used in ([23]). pUL21-ΔL, -ΔR and -ΔLR were generated from this vector via inverse PCR, and point mutations were introduced via QuikChange mutagenesis.
Mycoplasma-free human embryonic kidney 293T (HEK 293T) cells (American Type Culture Collection #CRL-3216) were maintained in Dulbecco’s modified Eagle’s medium (DMEM) with high glucose (Merck), supplemented with 10% (v/v) heat-inactivated fetal calf serum and 2 mM L-glutamine (complete DMEM) in a humidified 5% CO2 atmosphere at 37 °C. The identity of the cell line was not independently confirmed.
Monolayers of HEK 293T cells were transfected with 7.7 μg of DNA per 9 cm dish, using 18 μg/ml 25 kDa branched polyethylenimine (Merck) or using TransIt-LT1 (Mirus) in accordance with the manufacturer’s instructions. Cells were harvested 24 h post-transfection and incubated for 30 min in ice-cold 10 mM Tris pH 7.5, 150 mM NaCl, 0.5 mM EDTA, 0.5% Igepal CA-630 (a.k.a. NP-40), 1% (v/v) EDTA-free protease inhibitor cocktail (Merck) before clarification at 21,000×g for 10 min at 4 °C. Lysate protein concentrations were measured using the bicinchoninic acid (BCA) assay (Pierce) and normalized before affinity capture using GFP-Trap resin (ChromoTek) following the manufacturer’s protocol. Samples were eluted by heating the resin to 95 °C for 5 min in 45 μl 2 × SDS-PAGE loading buffer. Proteins were separated by SDS-PAGE and transferred to 0.45 μm nitrocellulose membranes (PerkinElmer or Cytiva). Membranes were stained with Ponceau S and imaged using a G:Box XX9 (Syngene) before blocking in Tris-buffered saline with 0.1% TWEEN-20 (TBS-T) supplemented with 5% (w/v) non-fat milk powder. Immunoblotting was performed using antibodies diluted in blocking buffer as listed below, and immunoblots were imaged using an Odyssey CLx (LI-COR Biosciences). Densitometry was performed using Image Studio Lite version 5.2 (LI-COR Biosciences), and statistical tests were performed using Prism version 7 (GraphPad).
The following primary antibodies and dilutions were used for immunoblotting: rabbit anti-CERT 1:10,000 (Abcam #Ab72536), mouse anti-PP1α 1:1000 (Santa Cruz #sc-271762), mouse anti-Myc 1:4000 (Millipore #05–724), rat anti-tubulin (clone YL1/2) hybridoma supernatant 1:40 ([54]). The anti-CERT antibody was validated using a knock-out cell line. The anti-PP1α antibody has been validated by siRNA knockdown ([55]). The anti-Myc antibody was validated using control experiments lacking Myc-tagged transfected constructs ([56]). The anti-tubulin antibody has been validated by immunofluorescence microscopy, immuno-electron microscopy and radiolabeled immunosorbent assay ([54]). Secondary antibodies from LI-COR Biosciences were diluted 1:10,000 as follows: IRDye 680RD goat anti-rat (#926–68029) and goat anti-mouse (#926–68020), or IRDye 800CW goat anti-rabbit (#926–32221).
(In general: Immunoblotting shows a protein as a band on a membrane.)

B1: pORF38-GFP (protein)
chain: MEFPYHSTVSYNGVTFYFNERATRAYFICGGCLISIPRKHGGEIAKFGHVVRGVGPGDRSVASYVRSELNRTGKTWAVSSNNNCVFLDRVALLAAGSGAVDRDLCGTFDVEVEDPTLADYLVSLPVTHLTLVAGVDVTRENKLKLFPTPTAINTTNGFMYVPNEASFSLVYMRMLELPESLQELVSGLFDGTPEIRDALNGSNDDEKTSIIVSRRAADVVTEDVKADDVPISGEPYSEKQPRRRKKSDHITLSNFVQIRTIPRVMDIWDPRHKATTHCIRALSCAVFFADEVIFKARKWPGLEDELNEARETIYTAVVAVYGERGELPFFGHAYGRDLTSCQRFVIVQYILSRWEAFNCYAVIEDLTRSYVNALPSDDDTDQVAQDLIRTIVDTANSLLREVGFIGTLAETLLFLPLPQLPCYKETSHLAKKEGVRILRLAKTGVGLSDTVPVDVSVTERHEYEISRYLDTLYSGDPCYNGAVRLCRLLGSSIPIALYYNTISGNAFEPYFAGRRYIAYLGALFFGRVHQTPFGDGKKTQR
modifications: left off: GFP, end not stated, kept
B1: the “Co-IP of endogenous PP1α” value is recorded as “consistently co-immunoprecipitated more efficiently by pORF38-GFP than by pUL21-GFP”. Under “listed as pORF38”, the “Co-IP of endogenous PP1α” value was “efficiently precipitate endogenous PP1α”.

B2: pORF38-FV255AA (protein)
chain: B1 chain with F255A, V256A
modifications: left off: GFP, end not stated, kept
As to B2, the “Co-IP of endogenous PP1α” value is reported as “the interaction is disrupted by mutation of the TROPPO motif”. Moreover, the “Co-IP of endogenous PP1α” value (listed as FV255AA) is “abolished binding to PP1”.

B3: pUL21-FV242AA (protein)
chain: MELSYATTMHYRDVVFYVTTDRNRAYFVCGGCVYSVGRPCASQPGEIAKFGLVVRGTGPDDRVVANYVRSELRQRGLQDVRPIGEDEVFLDSVCLLNPNVSSELDVINTNDVEVLDECLAEYCTSLRTSPGVLISGLRVRAQDRIIELFEHPTIVNVSSHFVYTPSPYVFALAQAHLPRLPSSLEALVSGLFDGIPAPRQPLDAHNPRTDVVITGRRAPRPIAGSGAGSGGAGAKRATVSEAAQVKHIDRVGPAGVSPAPPPNNTDSSSLVPGAQDSAPPGPTLRELWWVFYAADRALEEPRADSGLTREEVRAVRGFREQAWKLFGSAGAPRAFIGAALGLSPLQKLAVYYYIIHRERRLSPFPALVRLVGRYTQRHGLYVPRPDDPVLADAINGLFRDALAAGTTAEQLLMFDLLPPKDVPVGSDVQADSTALLRFIESQRLAVPGGVISPEHVAYLGAFLSVLYAGRGRMSAATHTARLTGVTSLVLAVGDVDRLSAFDRGAAGAASRTRAAGYLDVLLTVRLARSQHGQSV
modifications: left off: GFP, end not stated, kept
B3: the “Co-IP of endogenous PP1α” value is “the interaction is disrupted by mutation of the TROPPO motif”. Also, where the note is “listed as FV242AA”, the “Co-IP of endogenous PP1α” value is “PP1α coIP was abolished”.

B4: pUL21ΔLR (protein)
chain: MELSYATTMHYRDVVFYVTTDRNRAYFVCGGCVYSVGRPCASQPGEIAKFGLVVRGTGPDDRVVANYVRSELRQRGLQDVRPIGEDEVFLDSVCLLNPNVSSELDVINTNDVEVLDECLAEYCTSLRTSPGVLISGLRVRAQDRIIELFEHPTIVNVSSHFVYTPSPYVFALAQAHLPRLPSSLEALVSGLFDGIPAPRQPLDAHNPRTDVVITGTVSEFVQVKHIDRVGPAGVSAPPGPTLRELWWVFYAADRALEEPRADSGLTREEVRAVRGFREQAWKLFGSAGAPRAFIGAALGLSPLQKLAVYYYIIHRERRLSPFPALVRLVGRYTQRHGLYVPRPDDPVLADAINGLFRDALAAGTTAEQLLMFDLLPPKDVPVGSDVQADSTALLRFIESQRLAVPGGVISPEHVAYLGAFLSVLYAGRGRMSAATHTARLTGVTSLVLAVGDVDRLSAFDRGAAGAASRTRAAGYLDVLLTVRLARSQHGQSV
modifications: left off: GFP (from the vector pEGFP-N1), end not stated, kept
As to B4, the “Co-IP of endogenous PP1α” value is “completely abolishes PP1α binding”.

B5: pUL21ΔL (protein)
chain: MELSYATTMHYRDVVFYVTTDRNRAYFVCGGCVYSVGRPCASQPGEIAKFGLVVRGTGPDDRVVANYVRSELRQRGLQDVRPIGEDEVFLDSVCLLNPNVSSELDVINTNDVEVLDECLAEYCTSLRTSPGVLISGLRVRAQDRIIELFEHPTIVNVSSHFVYTPSPYVFALAQAHLPRLPSSLEALVSGLFDGIPAPRQPLDAHNPRTDVVITGTVSEFVQVKHIDRVGPAGVSPAPPPNNTDSSSLVPGAQDSAPPGPTLRELWWVFYAADRALEEPRADSGLTREEVRAVRGFREQAWKLFGSAGAPRAFIGAALGLSPLQKLAVYYYIIHRERRLSPFPALVRLVGRYTQRHGLYVPRPDDPVLADAINGLFRDALAAGTTAEQLLMFDLLPPKDVPVGSDVQADSTALLRFIESQRLAVPGGVISPEHVAYLGAFLSVLYAGRGRMSAATHTARLTGVTSLVLAVGDVDRLSAFDRGAAGAASRTRAAGYLDVLLTVRLARSQHGQSV
modifications: left off: GFP (from the vector pEGFP-N1), end not stated, kept
Consider B5, for which the “Co-IP of endogenous PP1α” value is “completely abolishes PP1α binding”.

B6: pUL21ΔR (protein)
chain: MELSYATTMHYRDVVFYVTTDRNRAYFVCGGCVYSVGRPCASQPGEIAKFGLVVRGTGPDDRVVANYVRSELRQRGLQDVRPIGEDEVFLDSVCLLNPNVSSELDVINTNDVEVLDECLAEYCTSLRTSPGVLISGLRVRAQDRIIELFEHPTIVNVSSHFVYTPSPYVFALAQAHLPRLPSSLEALVSGLFDGIPAPRQPLDAHNPRTDVVITGRRAPRPIAGSGAGSGGAGAKRATVSEFVQVKHIDRVGPAGVSAPPGPTLRELWWVFYAADRALEEPRADSGLTREEVRAVRGFREQAWKLFGSAGAPRAFIGAALGLSPLQKLAVYYYIIHRERRLSPFPALVRLVGRYTQRHGLYVPRPDDPVLADAINGLFRDALAAGTTAEQLLMFDLLPPKDVPVGSDVQADSTALLRFIESQRLAVPGGVISPEHVAYLGAFLSVLYAGRGRMSAATHTARLTGVTSLVLAVGDVDRLSAFDRGAAGAASRTRAAGYLDVLLTVRLARSQHGQSV
modifications: left off: GFP (from the vector pEGFP-N1), end not stated, kept
For the molecule B6, the “Co-IP of endogenous PP1α” value was “binding is retained”.
